Where two headings read alike, the source gives them in different places.
Legend:
[1] = target: T1, CA6, tumor-associated MUC1-sialoglycotope (human, UniProt P15941 24-1255, carries the CA6 sialoglycotope (sialylated glycan epitope); sites not stated); assay: flow cytometry (FACS) on WISH cells (CA6+)
[2] = target: T1, CA6, tumor-associated …; assay: flow cytometry (FACS) on WISH cells (CA6+); remark: listed apart in the source
[3] = target: T1, CA6, tumor-associated …; assay: method not given; presumably flow cytometry on WISH (CA6+) cells as for the B-Fabs
[4] = target: T1, CA6, tumor-associated …; assay: flow cytometry (FACS) on WISH cells (CA6+); remark: listed apart in the source

T1 sequence (P15941 24-1097, chain 1 of 2): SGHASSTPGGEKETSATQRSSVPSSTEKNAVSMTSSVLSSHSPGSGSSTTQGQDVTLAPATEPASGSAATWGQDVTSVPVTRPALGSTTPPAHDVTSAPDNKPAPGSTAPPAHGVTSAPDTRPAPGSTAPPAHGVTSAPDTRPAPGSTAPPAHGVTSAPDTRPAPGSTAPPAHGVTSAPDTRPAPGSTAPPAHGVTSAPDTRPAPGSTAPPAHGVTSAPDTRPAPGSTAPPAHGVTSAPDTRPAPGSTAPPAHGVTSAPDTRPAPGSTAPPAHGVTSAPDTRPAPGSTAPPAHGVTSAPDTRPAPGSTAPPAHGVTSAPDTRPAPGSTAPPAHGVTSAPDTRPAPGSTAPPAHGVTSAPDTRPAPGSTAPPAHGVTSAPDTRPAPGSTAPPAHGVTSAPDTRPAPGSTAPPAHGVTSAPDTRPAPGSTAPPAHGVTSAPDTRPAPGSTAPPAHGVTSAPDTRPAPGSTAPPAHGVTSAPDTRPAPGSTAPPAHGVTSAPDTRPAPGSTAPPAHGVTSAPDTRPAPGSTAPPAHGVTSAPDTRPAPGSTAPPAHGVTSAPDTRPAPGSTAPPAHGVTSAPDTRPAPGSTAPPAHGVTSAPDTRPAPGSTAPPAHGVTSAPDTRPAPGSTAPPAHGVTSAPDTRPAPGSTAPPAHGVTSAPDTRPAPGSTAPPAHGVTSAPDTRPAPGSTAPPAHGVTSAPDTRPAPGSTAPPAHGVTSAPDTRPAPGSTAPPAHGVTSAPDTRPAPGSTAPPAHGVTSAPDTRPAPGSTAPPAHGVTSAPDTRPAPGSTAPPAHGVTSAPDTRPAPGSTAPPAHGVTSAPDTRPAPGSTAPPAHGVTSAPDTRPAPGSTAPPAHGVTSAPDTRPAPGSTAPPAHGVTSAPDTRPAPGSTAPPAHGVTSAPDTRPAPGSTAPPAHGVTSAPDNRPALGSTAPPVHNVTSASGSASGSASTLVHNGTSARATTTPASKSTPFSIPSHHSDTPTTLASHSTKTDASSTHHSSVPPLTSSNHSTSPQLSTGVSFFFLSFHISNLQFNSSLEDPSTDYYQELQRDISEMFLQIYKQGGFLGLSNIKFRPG
T1 sequence (P15941 1098-1255, chain 2 of 2): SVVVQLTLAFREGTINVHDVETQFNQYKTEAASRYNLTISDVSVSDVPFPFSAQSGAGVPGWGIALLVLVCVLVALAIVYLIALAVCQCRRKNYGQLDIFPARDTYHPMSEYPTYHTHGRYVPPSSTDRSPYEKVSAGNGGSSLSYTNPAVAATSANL

EC50 (read off the curve) [1]: ~2 nM
EC50 (read off the curve) [2]: ~2 nM
Kd [3]: 2 nM
EC50 (read off the curve) [4]: ~2 nM
B1: Control DS6 monoclonal antibody (antibody, V domains shown)
VH: EAQLVQSGAEVVKPGASVKMSCKASGYTFTSYNMHWVKQTPGQGLEWIGYIYPGNGATNYNQKFQGKATLTADPSSSTAYMQISSLTSEDSAVYFCARGDSVPFAYWGQGTLVTVSA
VL: EIVLTQSPATMSASPGERVTITCSAHSSVSFMHWFQQKPGTSPKLWIYSTSSLASGVPARFGGSGSGTSYSLTISSMEAEDAATYYCQQRSSFPLTFGAGTKLELK

Source: US20140256916A1 (Sanofi, published 2014)
